# T1: murine IL-11 (mouse) (UniProt P47873)
# T1 sequence (looked up): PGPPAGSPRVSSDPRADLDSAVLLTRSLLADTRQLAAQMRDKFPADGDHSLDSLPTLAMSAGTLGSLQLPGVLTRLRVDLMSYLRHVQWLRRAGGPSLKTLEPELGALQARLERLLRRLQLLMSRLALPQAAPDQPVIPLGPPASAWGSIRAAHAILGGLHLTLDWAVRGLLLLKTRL
# Molecular target: T1, murine IL-11 (mouse)
# Test: ELISA binding signal
row,mIL11 - average signal,Binder
1,0.601,YU112-F05 (scFv) scFv: EVQLVQSGGGVVQPGRSLRLSCAASGFTFGSYGMHWVRQAPGKGLEWVAVISYDGSNKYYADSVKGRFTISRDNSKNTLYLQMNSLRAEDTAVYYCAKIGATDPLDYWGQGTLVTVSSGSASAPKLEEGEFSEARVQSALTQPRSVSGSPGQSVTISCTGTSSDVGGYNYVSWYQQHPGKAPKLIIYDVNNRPSGVSNRFSASKSGNTASLTISGLQAEDEADYYCNSYTSGSTWVFGGGTKLTVL
2,0.188,YU100-H02 (scFv) scFv: QVQLQQSGGGVVQPGRSLRLSCAASGFTFSSYGMHWVRQAPGKGLEWVAVISYDGSNKYYADSVKGRFTISRDNSKNTLYLQMNSLRAEDTAVYYCARIMGYDYGDYDVVDYWGQGTLVTVSSGSASAPKLEEGEFSEARVQSALTQPRSVSRSPGQSVTISCTGTSSDVGTYNYVSWYQQHPGKAPKLMIYDVSKRPSGVPDRFSGSKSGNTASLTISGLQAEDEADYYCCSYAGFYTWVFGGGTKLTVL
3,0.372,YU100-A11 (scFv) scFv: EVQLQQSGGGVVQPGRSLRLSCAASGFTFSSYGMHWVRQAPGKGLEWVAVISYDGSNKYYADSVKGRFTISRDNSKNTLYLQMNSLRAEDTAVYYCAKIGATDPLDYWGQGTLVTVSSGSASAPKLEEGEFSEARVQSALTQPRSVSGSPGQSVTISCTGTSSDVGGYNYVSWYQQHPGKAPKLMIYDVSKRPSGVPDRFSGSKSGNTASLTISGLQAEDEADYYCCSYAGSYTWVFGGGTKLTVL
4,0.247,YU100-E07 (scFv) scFv: QVQLQESGGGVVQPGRSLRLSCAASGFTFSSYGMHWVRQAPGKGLEWVAVISYDGSNRYYADSVKGRFAISRDNSKNTLYLQMNSLRAEDTAVYYCAKIGATDPLDYWGQGTLVTVSSGSASAPKLEEGEFSEARVQSALTQPRSVSGSPGQSVTISCTGTSSDVGGYDYVSWYQQHPGKAPELMIYDVTKRPSGVADRFSGSKSGNTASLTISGLQAEDEADYYCCSYAGRYTWVFGGGTKLTVL
